Experimental findings from PMC3748285 (Cell reports, 2013) are described below.

Data set [1] concerns the target LTag131-627 V350E/P417D (Simian virus 40). The data set is described as follows: SEC + other: SDS-PAGE gel quantification.
Data set [2] addresses SV40 large T antigen LTag131-627 (Simian virus 40, UniProt P03070 131-627). The data set is described as follows: X-ray crystallography.
The data set “SEC” deals with the molecule itself. The data set is described as follows: SEC.
The data set “crystal structure” deals with the molecule itself. The data set is described as follows: crystal structure.

For the molecule “LTag131-627 L286Dt/R567E (domain or fragment)”, in data set [1], the stoichiometry N (commonly a count of units in the complex or per binding partner) was 1 mut1:mut2.

B1: EP-half ori 32 bp (dsDNA)
DNA 1: ACTACTTCTGGAATAGCTCAGAGGCCGAGGCG
DNA 2: CGCCTCGGCCTCTGAGCTATTCCAGAAGTAGT
On to B1, for which, in data set [2], the binding result is “binds”.

B2: SV40 large tumor antigen LTag131-627 (wild type) (domain or fragment)
chain: KVEDPKDFPSELLSFLSHAVFSNRTLACFAIYTTKEKAALLYKKIMEKYSVTFISRHNSYNHNILFFLTPHRHRVSAINNYAQKLCTFSFLICKGVNKEYLMYSALTRDPFSVIEESLPGGLKEHDFNPEEAEETKQVSWKLVTEYAMETKCDDVLLLLGMYLEFQYSFEMCLKCIKKEQPSHYKYHEKHYANAAIFADSKNQKTICQQAVDTVLAKKRVDSLQLTREQMLTNRFNDLLDRMDIMFGSTGSADIEEWMAGVAWLHCLLPKMDSVVYDFLKCMVYNIPKKRYWLFKGPIDSGKTTLAAALLELCGGKALNVNLPLDRLNFELGVAIDQFLVVFEDVKGTGGESRDLPSGQGINNLDNLRDYLDGSVKVNLEKKHLNKRTQIFPPGIVTMNEYSVPKTLQARFVKQIDFRPKDYLKHCLERSEFLLEKRIIQSGIALLLMLIWYRPVAEFAQSIQSRIVEWKERLDKEFSLSVYQKMKFNVAMGIGVLD
B2: the “stoichiometry N” value in the data set “SEC” came to 6; in the data set “crystal structure” it was 2.
